Bounds are passed on as bounds.

Experiment [1] deals with T1, Human c-Met (human, UniProt P08581 25-1390). Nature of the experiment: cell-based or functional assay.
Experiment [2] addresses T2, recombinant human c-Met/Fc chimera (R&D systems) (human).
T2 construct: R&D Systems 358-MT/CF, expressed in NS0 cells; also called hc-Met/Fc; hu c-Met/Fc
The experiment can be described thus: HGF-competition Alphascreen: biotinylated hHGF, human c-Met/Fc.

The target in experiment [3] is T1, Human c-Met. The experiment can be described thus: cell-based or functional assay. The source holds these as a separate data set.
The target of experiment [4] is T3, recombinant human CTLA4/Fc chimera (R&D Systems) (human, UniProt P16410 37-162, limits assumed).
T3 construct: control protein; not shown: Fc part of a bought protein, not described
Nature of the experiment: SPR (ProteOn), CTLA4/Fc captured on anti-human IgG(Fc). Here is the method: (§1) Anti-human IgG(Fc) antibody (GE Healthcare) was immobilized on a ProteOn GLC Sensorchip (BioRad) via amine coupling on two ligand lanes at densities of approximately 5300 RU and 2700 RU. […] Regeneration of the surface was performed by an 80 seconds injection of 3M magnesium chloride at 25 μl/min (component of kit BR-1008-39, GE Healthcare).

Experiment [5] has as its target T2, recombinant human c-Met/Fc chimera (R&D …). Nature of the experiment: SPR (ProteOn), c-Met/Fc captured on anti-human IgG(Fc). Here is the method:
as §1
The experiment was performed as described in Example 5.

A further experiment addresses T4, cynomolgus c-Met (cynomolgus monkey, UniProt A0M8R7 25-1381 (Papio anubis entry)).
T4 construct: also called cynomolgus monkey c-Met; cyno c-Met
The experiment can be described thus: competition FACS: 0.5 nM biotinylated HGF on BAF3 cells with cynomolgus c-Met. Here is the method: Cells were analyzed on a FACSarray flow cytometer as described in earlier examples.

For experiment [6], the target named is T1, Human c-Met. The experiment can be described thus: cell-based or functional assay. The source holds these as a separate data set.
Experiment [7] has as its target T1, Human c-Met. Nature of the experiment: cell-based or functional assay. The source holds these as a separate data set.
In experiment [8] the target is T2, recombinant human c-Met/Fc chimera (R&D …). Nature of the experiment: HGF/c-MET competition Alphascreen; reference 5D5 Fab v2. Here is the method: (§2) To this mixture the anti-human Fc conjugated acceptor beads and c-MET/Fc (100 pM final concentration) were added and incubated for 2 hours at RT. Next, streptavidin donor beads were added and the mixture was incubated for 1 additional hour. Fluorescence was measured by reading plates on the EnVision Multilabel Plate Reader using an excitation wavelength of 680 nm and an emission wavelength of 520 nm.

Experiment [9] shares this target. Nature of the experiment: HGF/c-MET competition Alphascreen: 100 pM biotinylated hHGF, 100 pM c-MET/Fc. On the procedure:
as §2

T1 sequence (P08581 25-1390 limits assumed): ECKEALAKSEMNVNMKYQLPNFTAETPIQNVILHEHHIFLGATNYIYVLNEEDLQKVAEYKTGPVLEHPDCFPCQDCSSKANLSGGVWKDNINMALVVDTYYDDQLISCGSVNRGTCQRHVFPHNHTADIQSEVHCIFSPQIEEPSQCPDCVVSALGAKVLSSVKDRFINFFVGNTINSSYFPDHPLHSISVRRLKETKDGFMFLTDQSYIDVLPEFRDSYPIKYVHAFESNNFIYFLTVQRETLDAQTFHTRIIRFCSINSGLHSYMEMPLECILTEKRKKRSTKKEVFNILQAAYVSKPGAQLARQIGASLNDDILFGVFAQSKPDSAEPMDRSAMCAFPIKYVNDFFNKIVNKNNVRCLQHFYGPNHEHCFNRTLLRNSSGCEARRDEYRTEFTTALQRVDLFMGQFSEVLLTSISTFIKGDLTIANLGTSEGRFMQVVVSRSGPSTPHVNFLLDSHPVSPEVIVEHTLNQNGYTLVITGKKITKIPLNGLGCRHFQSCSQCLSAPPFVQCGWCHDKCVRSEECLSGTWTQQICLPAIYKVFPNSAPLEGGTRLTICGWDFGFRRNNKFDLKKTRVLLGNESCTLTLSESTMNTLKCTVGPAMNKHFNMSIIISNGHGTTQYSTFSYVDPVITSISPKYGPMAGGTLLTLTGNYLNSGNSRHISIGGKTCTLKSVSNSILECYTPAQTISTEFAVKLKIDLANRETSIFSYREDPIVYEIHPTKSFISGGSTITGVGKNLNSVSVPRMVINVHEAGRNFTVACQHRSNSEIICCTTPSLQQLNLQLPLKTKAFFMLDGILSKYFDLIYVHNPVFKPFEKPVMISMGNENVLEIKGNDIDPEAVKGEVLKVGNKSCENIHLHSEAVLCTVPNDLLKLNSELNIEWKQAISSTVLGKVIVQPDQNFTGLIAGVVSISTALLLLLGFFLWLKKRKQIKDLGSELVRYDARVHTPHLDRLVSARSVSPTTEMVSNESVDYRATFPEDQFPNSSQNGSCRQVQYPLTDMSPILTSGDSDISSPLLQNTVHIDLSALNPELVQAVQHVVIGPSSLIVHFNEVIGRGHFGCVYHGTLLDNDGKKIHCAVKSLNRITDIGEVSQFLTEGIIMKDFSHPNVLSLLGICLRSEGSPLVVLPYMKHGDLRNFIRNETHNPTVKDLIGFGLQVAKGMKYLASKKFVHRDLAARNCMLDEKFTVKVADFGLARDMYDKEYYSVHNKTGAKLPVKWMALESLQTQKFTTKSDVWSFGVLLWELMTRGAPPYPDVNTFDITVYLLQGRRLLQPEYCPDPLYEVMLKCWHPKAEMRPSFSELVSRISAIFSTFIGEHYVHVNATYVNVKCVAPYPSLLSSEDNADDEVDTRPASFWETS
T2 sequence (chain, as listed by the source mutant limits assumed): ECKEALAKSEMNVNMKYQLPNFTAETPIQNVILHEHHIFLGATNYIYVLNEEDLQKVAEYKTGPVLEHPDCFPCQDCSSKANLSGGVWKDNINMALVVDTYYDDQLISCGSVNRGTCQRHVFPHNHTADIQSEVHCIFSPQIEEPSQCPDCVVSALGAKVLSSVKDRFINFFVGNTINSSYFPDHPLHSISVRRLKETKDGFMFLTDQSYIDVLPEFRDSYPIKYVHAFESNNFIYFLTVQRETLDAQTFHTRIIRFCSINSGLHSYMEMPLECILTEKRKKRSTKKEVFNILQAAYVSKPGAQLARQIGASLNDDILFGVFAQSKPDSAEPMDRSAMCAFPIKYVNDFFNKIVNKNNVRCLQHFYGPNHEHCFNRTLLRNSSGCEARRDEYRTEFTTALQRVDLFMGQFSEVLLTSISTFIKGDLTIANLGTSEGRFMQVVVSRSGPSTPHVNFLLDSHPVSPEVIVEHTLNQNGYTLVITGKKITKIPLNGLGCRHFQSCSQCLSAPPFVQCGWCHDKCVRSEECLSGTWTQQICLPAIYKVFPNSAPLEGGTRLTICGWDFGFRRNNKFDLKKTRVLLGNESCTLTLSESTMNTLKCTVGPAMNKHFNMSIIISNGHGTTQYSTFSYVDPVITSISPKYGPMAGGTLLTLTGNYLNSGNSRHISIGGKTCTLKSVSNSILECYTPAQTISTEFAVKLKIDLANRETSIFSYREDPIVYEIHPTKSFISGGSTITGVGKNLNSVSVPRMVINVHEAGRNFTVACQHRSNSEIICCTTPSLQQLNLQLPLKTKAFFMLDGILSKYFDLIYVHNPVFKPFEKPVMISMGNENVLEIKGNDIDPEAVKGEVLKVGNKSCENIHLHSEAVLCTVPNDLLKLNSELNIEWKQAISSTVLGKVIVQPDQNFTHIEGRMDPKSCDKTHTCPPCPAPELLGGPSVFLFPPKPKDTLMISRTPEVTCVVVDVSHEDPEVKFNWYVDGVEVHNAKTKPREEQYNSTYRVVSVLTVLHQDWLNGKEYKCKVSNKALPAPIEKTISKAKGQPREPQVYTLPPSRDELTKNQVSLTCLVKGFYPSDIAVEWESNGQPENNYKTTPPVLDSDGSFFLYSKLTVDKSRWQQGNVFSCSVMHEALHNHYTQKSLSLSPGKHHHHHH
T4 sequence (A0M8R7 25-1381 S170N/I621T limits assumed): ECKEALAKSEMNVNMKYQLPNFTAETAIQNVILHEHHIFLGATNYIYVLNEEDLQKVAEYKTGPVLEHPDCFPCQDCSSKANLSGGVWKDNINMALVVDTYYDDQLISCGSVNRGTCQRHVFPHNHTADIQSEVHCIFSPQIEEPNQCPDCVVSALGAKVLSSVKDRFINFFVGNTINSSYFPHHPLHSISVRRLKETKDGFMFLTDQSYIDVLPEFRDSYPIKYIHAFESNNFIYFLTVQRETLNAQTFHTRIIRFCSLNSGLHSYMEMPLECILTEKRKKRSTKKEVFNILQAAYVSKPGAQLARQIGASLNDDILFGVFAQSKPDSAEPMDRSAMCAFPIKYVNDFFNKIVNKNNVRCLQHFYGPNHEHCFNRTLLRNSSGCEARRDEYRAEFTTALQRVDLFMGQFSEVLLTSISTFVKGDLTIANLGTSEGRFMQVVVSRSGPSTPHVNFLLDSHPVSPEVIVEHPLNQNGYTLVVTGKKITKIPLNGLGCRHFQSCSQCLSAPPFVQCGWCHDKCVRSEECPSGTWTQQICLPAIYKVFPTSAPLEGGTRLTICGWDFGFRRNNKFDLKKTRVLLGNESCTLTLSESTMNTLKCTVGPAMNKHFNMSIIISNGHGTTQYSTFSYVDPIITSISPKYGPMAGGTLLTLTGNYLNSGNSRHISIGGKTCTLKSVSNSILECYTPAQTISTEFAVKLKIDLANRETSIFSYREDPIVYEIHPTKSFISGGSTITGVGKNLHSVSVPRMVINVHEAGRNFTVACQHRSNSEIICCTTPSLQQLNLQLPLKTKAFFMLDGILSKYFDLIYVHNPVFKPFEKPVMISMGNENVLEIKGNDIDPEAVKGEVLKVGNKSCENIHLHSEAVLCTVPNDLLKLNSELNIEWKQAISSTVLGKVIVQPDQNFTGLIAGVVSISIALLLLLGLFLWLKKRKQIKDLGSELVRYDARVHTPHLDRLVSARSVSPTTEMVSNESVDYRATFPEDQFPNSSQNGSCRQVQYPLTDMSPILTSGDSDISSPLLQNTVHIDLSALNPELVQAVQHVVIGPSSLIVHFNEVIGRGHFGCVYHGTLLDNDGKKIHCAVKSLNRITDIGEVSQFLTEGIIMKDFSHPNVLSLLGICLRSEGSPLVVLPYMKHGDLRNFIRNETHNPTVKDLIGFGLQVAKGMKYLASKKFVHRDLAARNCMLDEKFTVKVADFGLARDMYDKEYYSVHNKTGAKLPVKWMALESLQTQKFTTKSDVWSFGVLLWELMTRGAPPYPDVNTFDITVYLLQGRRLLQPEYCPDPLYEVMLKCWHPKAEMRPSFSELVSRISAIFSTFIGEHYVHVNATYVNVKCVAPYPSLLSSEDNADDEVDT
T3 sequence (P16410 37-162 limits assumed, change not shown): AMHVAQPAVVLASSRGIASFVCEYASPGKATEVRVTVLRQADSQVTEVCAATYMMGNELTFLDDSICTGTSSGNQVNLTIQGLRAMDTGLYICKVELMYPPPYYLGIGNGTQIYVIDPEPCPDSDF

B1: A007901222 (bispecific antibody)
chain: DVQLVESGGGLVQPGGSLRLSCAASGFILDYYAIGWFRQAPGKEREGVLCIDASDDITYYADSVKGRFTISRDNSKNTVYLQMNSLRPEDTAVYYCATPIGLSSSCLLEYDYDYWGQGTLVTVSSGGGGSGGGSEVQLLESGGGLVQPGGSLRLSCAASGFTFRSFGMSWVRQAPGKGPEWVSSISGSGSDTLYADSVKGRFTISRDNSKNTLYLQMNSLRPEDTAVYYCTIGGSLSRSSQGTLVTVSSA
notes: produced in P. pastoris X33; also called A00790105-9GS-Alb23-A
For the molecule B1, in the experiment with Human c-Met [1], the “IC50, c-Met phosphorylation” value amounted to 3.97 nM and the “IC50, proliferation assay” value was 1.37 nM. The IC50 in [2] came to 0.072 nM.

B2: 04E09 (C22A/C92S) (SEQ ID NO: 25) tagged with 3xFlag-His6 (VHH)
VHH: EVQLVESGGGLVQPGGSLRLSAAASGFILDYYAIGWFRQAPGKEREGVLCIDASDDITYYADSVKGRFTISRDNAKNTVYLQMNSLKPEDTGVYYSATPIGLSSSCLLEYDYDYWGQGTLVTVSSGAADYKDHDGDYKDHDIDYKDDDDKGAAHHHHHH
As to B2, the “IC50, HGF-dependent c-Met phosphorylation in A549 tumor cells” value with Human c-Met [3] is 3.8 nM. Moreover, the binding result in experiment [4] was “no binding”. In experiment [5], the Kd is 0.0234 nM, the koff was determined as 7.9e-05 s⁻¹ and the kon was determined as 3.37e+06 M⁻¹ s⁻¹. Besides, in the experiment with cynomolgus c-Met, the “% inhibition” value came to 101% and the IC50 stood at 0.49 nM.

B3: A007901219 (A00790105-9GS-Alb23) (bispecific antibody)
chain: DVQLVESGGGLVQPGGSLRLSCAASGFILDYYAIGWFRQAPGKEREGVLCIDASDDITYYADSVKGRFTISRDNSKNTVYLQMNSLRPEDTAVYYCATPIGLSSSCLLEYDYDYWGQGTLVTVSSGGGGSGGGSEVQLLESGGGLVQPGGSLRLSCAASGFTFRSFGMSWVRQAPGKGPEWVSSISGSGSDTLYADSVKGRFTISRDNSKNTLYLQMNSLRPEDTAVYYCTIGGSLSRSSQGTLVTVSS
notes: also called A007901219 (Alb23)
Regarding B3, in the experiment with Human c-Met [6], the “fold improved potency against 5D5 Fab v2, cMET phosphorylation assay” value is approximately 2 fold. For the same molecule, in the experiment with Human c-Met [7], the “IC50, cMET phosphorylation assay, A549 cells, +HSA” value amounted to 4.2 nM and the “IC50, cMET phosphorylation assay, A549 cells, -HSA” value stood at 5.41 nM. In addition, the “fold improved potency against 5D5 Fab v2” value in experiment [8] was more than 5 fold. In addition, the IC50 in experiment [9] was 0.066 nM.
